The supplement of paper PMC12764529
± gives the half width of the 95% confidence interval.

Assay: folding stability dG unfold from chymotrypsin proteolysis; higher = more stable
Method in brief: (§1)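 Mini-proteins designed to be under 80 residues and free of cysteine were carried in a PA-tagged cDNA display construct and digested with trypsin and with chymotrypsin. Each protease was applied at 11 threefold-diluted concentrations, alongside a no-protease condition, before sequencing. K50 came from Bayesian fitting of the sequencing counts, and unfolding free energy was obtained by comparing it with a sequence-predicted unfolded-state K50 and a shared folded-state K50, for each protease separately or for both together. Designs were retained only if their AlphaFold2 dimer inter-PAE exceeded 15.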
For “SAGGSAGGSAGKTYTFRVRIVDEETGEEKEIEVTAKSEEEAKKAAEELKKKYPNLKVELESAGGSAGGSAGG [r11_233_TrROS_Hall]”, the “folding stability dG unfold” value was 3.24 ± 0.036 kcal/mol.
For “SAGNIKISYDPDDGWLTITFPVAPGQEFSFKLNIMLPENGAKIKNVEVTGPLKDGQPVTITMKVTGIKPSAG [r5_737_TrROS]”, the “folding stability dG unfold” value was 3.77 ± 0.064 kcal/mol.
For “SAGGMKKEKVKITIVVPVEDAEKLREALEKLGFKVVEEKENEDGLLTLTVEVDGKKIEIKIVKKEELSAGGS [r16_170_TrROS_Hall]”, the “folding stability dG unfold” value was 0.81 ± 0.095 kcal/mol.
In the case of “SAMIVVPATFDDRTFVLRIERLPDGSYLVDVEDPDVSREAVVEALRELLPEDAKIVLDPETNLVYVSFDSAG [r14_370_TrMRF]”, the “folding stability dG unfold” value is reported as 3.73 ± 0.052 kcal/mol.
For “SAGMVKITVPSSVGPVDPSKALTFEKDDTRYILVPGEVAKEIEEKYPDLPIEIEPMSEEEAEKILKELSAGG [r19_271_JUSTAS]”, the “folding stability dG unfold” value was 0.624 ± 0.16 kcal/mol.
For “SAGGSAGGSAGKWKTITILIPNMPVEEIADRIMDKFGPGIRITEITPNKPGWFWITIIVRSAGGSAGGSAGG [r11_580_TrROS]”, the “folding stability dG unfold” value was 3.823 ± 0.037 kcal/mol.
In the case of “SAGGMKIEIVEIEREGNTITIKAKITLPDGTVIEITAKAEFVDGELKLEIKVEVRKLPPPPPPPPEESAGGS [r8_458_TrROS_Hall]”, the “folding stability dG unfold” value is reported as 2.73 ± 0.39 kcal/mol.
In the case of “SGLTNLRVEAELVPPGVLRVTFTEGGKPVYELTFTVVVPAPPVVEPVLLPNGVPALVVYDPATGKPVVYPSA [r9_343_TrMRF]”, the “folding stability dG unfold” value is reported as 3.27 ± 0.11 kcal/mol.
With “SAGGSAIENQFLRITMYHGNKPHTWTFPIKKVDIDPEDGNIEVYFPPEFRELFGGPMRITDIEFPPSAGGSA [r15_710_TrROS]” the “folding stability dG unfold” value was 1.63 ± 0.071 kcal/mol.
In the case of “SAGGMEEIEVEFEFTLPDGRTLRLTVRVRRFDGGIVVEVDVGGEEEEEREFMEEVAREIAERIAEEESAGGS [r8_416_TrMRF]”, the “folding stability dG unfold” value is reported as 4.51 ± 0.11 kcal/mol.
For “SAGNVTIRISFYPRKDGWFFRIKVHFDGKPRELMIPPDDSAEDLADELEKKLGADVTDIEVEWMPLEDGSAG [r5_181_TrROS]”, the “folding stability dG unfold” value was 4.25 ± 0.083 kcal/mol.
In the case of “SAGGSPPFRIKIDEIEILPNGIIQVTFKIDNGWPMTILIQMDPDGKVTIEIQFPGNGQPFEFELPISAGGSA [r2_361_TrROS]”, the “folding stability dG unfold” value is reported as 3.52 ± 0.07 kcal/mol.
With “SAGGSAGGSAGGMEFKPGQEIEIVLKDENGRLIVIKAKVKKVDGKLVIEIEEAYELDDLSAGGSAGGSAGGS [r10_744_TrROS_Hall]” the “folding stability dG unfold” value was 2 ± 0.14 kcal/mol.
For “SAGGSEVVLEAEGVDPATGKPYTVRVVYDKETGVPVVEVRDADGTLLAVIPVPPDKALEALKELGVSAGGSA [r2_115_TrMRF]”, the “folding stability dG unfold” value was 3.046 ± 0.013 kcal/mol.
For “SAGGSAGGSSPVRMVATIPLPDGTTITVEAEIVRLPDGTILIKTPSGEIIEVPPDVPVEFFPESAGGSAGGS [r20_227_JUSTAS]”, the “folding stability dG unfold” value was 2.45 ± 0.052 kcal/mol.
In the case of “SAGGSAGGSAGWFFVMDIKYEYRQTPDGKTEQEMSIEMKPIPPIPAEDLKEKLGLPPEDIASAGGSAGGSAG [r3_338_TrROS]”, the “folding stability dG unfold” value is reported as 2.62 ± 0.11 kcal/mol.
In the case of “SEITIYNKGKPPPEELLEALKKAPGFPPEDLRKNTKVEPNKDGPQITIPPEQAEQMSKRNPRIMEAIRELSA [r9_160_TrROS]”, the “folding stability dG unfold” value is reported as 1.75 ± 0.37 kcal/mol.
For “SAGGSAGGSPVPVKVEKKPTKENKELIITYYPDGKVRVTTYTYDENGNKISEKEEIIPKSEVKLSAGGSAGG [r6_579_JUSTAS]”, the “folding stability dG unfold” value was 1.58 ± 0.032 kcal/mol.
With “SAGGSAMPDDPLVLRANIPFVVVGPDGRPRLFRREILVPFASEEEAERFRRELEALGAEVEPVARASAGGSA [r15_117_TrMRF]” the “folding stability dG unfold” value was 2.17 ± 0.13 kcal/mol.
For “SAGSPPDDVREEETEEVVPSPDGSLTVTRTPVVRRPGEEEEVRTETTVYFPPSDETLTSESLTRFPGASAGG [r19_387_JUSTAS]”, the “folding stability dG unfold” value was 0.895 ± 0.051 kcal/mol.
In the case of “SKKVKITEITFPEGATFDGKKVTVTIKIVDEETGTVTITEITVDKNGKVTIKEVTVKVDPKTGKIVEITPSA [r9_122_TrROS_Hall]”, the “folding stability dG unfold” value is reported as 2.02 ± 0.04 kcal/mol.
For “SAGGSAGGSAGGSNPVDIVEILSYDPEKNTYTFLVKLPDGSTKTITVPGLSVEEIKKELSAGGSAGGSAGGS [r4_357_JUSTAS]”, the “folding stability dG unfold” value was 3.276 ± 0.029 kcal/mol.
For “SAGGSAGGSAGGMMVNLKVTREKLPNGKYRVTFTLPNGEEVVVEVESEEEAEAAAKEIAASAGGSAGGSAGG [r11_955_JUSTAS]”, the “folding stability dG unfold” value was 4.23 ± 0.052 kcal/mol.
With “SAGSSPEEIAERLREEAERTEKLPDGSEVRVSVSVDVEVLPNGTVRLTIPRSYPETGVVTTETVTIPVASAG [r5_397_JUSTAS]” the “folding stability dG unfold” value was -0.579 ± 0.33 kcal/mol.
With “SAGLLEVLRKIAEELGWELTSVEVHELPDGSVVATGEFRKGDRTYRVDIRYDPETGRVEVRLEPVPVPESAG [r14_784_TrMRF]” the “folding stability dG unfold” value was 5.51 ± 0.2 kcal/mol.
In the case of “SMKIYKTKEEAEKAAKETGKKVIVIKKGMSLEELLELLKKLKGLKEGQKVILVIQNEDGETYVIVLEIKPSA [r9_314_TrROS_Hall]”, the “folding stability dG unfold” value is reported as 1.43 ± 0.13 kcal/mol.
In the case of “SAGGSAGGSMPTLRVKIEVTNPDGEKLELTITVPRDMTLEELKALAEELAKAGYEVRIVEVEPSAGGSAGGS [r12_804_TrROS_Hall]”, the “folding stability dG unfold” value is reported as 2.83 ± 0.069 kcal/mol.
In the case of “SAGGSAGGSAMKPGEVIEIEITDKETGKKIKAEIVLKDGKLYIKIYNENGELIAEIEIEIKDSAGGSAGGSA [r18_264_TrROS_Hall]”, the “folding stability dG unfold” value is reported as 3.4 ± 0.12 kcal/mol.
In the case of “SAGGSAGGSAGMVIEVGGKKVTIEKNEDGSLKITVTDKNGKKKEITIPGMSLEEILKALKSAGGSAGGSAGG [r11_934_TrROS_Hall]”, the “folding stability dG unfold” value is reported as 2.57 ± 0.036 kcal/mol.
With “SAGGSAPLPPGAVVEIVEVRFDPETRRIEMVVKVYDANGELVATLRVELEFDPETNELTLRVELLPSAGGSA [r15_1028_TrROS_Hall]” the “folding stability dG unfold” value was 4.5 ± 0.18 kcal/mol.
With “SAMDFPPGSTATIKVEVKNPDNTKTETYEIEVPVDPETGKAITLEDLKEALEKLGVNPENVKIVDIKVGSAG [r14_93_TrMRF]” the “folding stability dG unfold” value was 2.25 ± 0.2 kcal/mol.

Assay: folding stability dG unfold (combined trypsin and chymotrypsin); higher = more stable
Method in brief: as §1
In the case of “SAGGSAGGSAGKTYTFRVRIVDEETGEEKEIEVTAKSEEEAKKAAEELKKKYPNLKVELESAGGSAGGSAGG [r11_233_TrROS_Hall]”, the “folding stability dG unfold” value is reported as 3.22 ± 0.14 kcal/mol.
For “SAGNIKISYDPDDGWLTITFPVAPGQEFSFKLNIMLPENGAKIKNVEVTGPLKDGQPVTITMKVTGIKPSAG [r5_737_TrROS]”, the “folding stability dG unfold” value was 3.27 ± 0.11 kcal/mol.
For “SAGGMKKEKVKITIVVPVEDAEKLREALEKLGFKVVEEKENEDGLLTLTVEVDGKKIEIKIVKKEELSAGGS [r16_170_TrROS_Hall]”, the “folding stability dG unfold” value was 1.05 ± 0.28 kcal/mol.
For “SAMIVVPATFDDRTFVLRIERLPDGSYLVDVEDPDVSREAVVEALRELLPEDAKIVLDPETNLVYVSFDSAG [r14_370_TrMRF]”, the “folding stability dG unfold” value was 3.55 ± 0.086 kcal/mol.
In the case of “SAGMVKITVPSSVGPVDPSKALTFEKDDTRYILVPGEVAKEIEEKYPDLPIEIEPMSEEEAEKILKELSAGG [r19_271_JUSTAS]”, the “folding stability dG unfold” value is reported as 0.258 ± 0.41 kcal/mol.
In the case of “SAGGSAGGSAGKWKTITILIPNMPVEEIADRIMDKFGPGIRITEITPNKPGWFWITIIVRSAGGSAGGSAGG [r11_580_TrROS]”, the “folding stability dG unfold” value is reported as 3.62 ± 0.069 kcal/mol.
For “SAGGMKIEIVEIEREGNTITIKAKITLPDGTVIEITAKAEFVDGELKLEIKVEVRKLPPPPPPPPEESAGGS [r8_458_TrROS_Hall]”, the “folding stability dG unfold” value was 2.55 ± 0.53 kcal/mol.
In the case of “SGLTNLRVEAELVPPGVLRVTFTEGGKPVYELTFTVVVPAPPVVEPVLLPNGVPALVVYDPATGKPVVYPSA [r9_343_TrMRF]”, the “folding stability dG unfold” value is reported as 2.86 ± 0.08 kcal/mol.
For “SAGGSAIENQFLRITMYHGNKPHTWTFPIKKVDIDPEDGNIEVYFPPEFRELFGGPMRITDIEFPPSAGGSA [r15_710_TrROS]”, the “folding stability dG unfold” value was 1.46 ± 0.067 kcal/mol.
For “SAGGMEEIEVEFEFTLPDGRTLRLTVRVRRFDGGIVVEVDVGGEEEEEREFMEEVAREIAERIAEEESAGGS [r8_416_TrMRF]”, the “folding stability dG unfold” value was 4.12 ± 0.093 kcal/mol.
In the case of “SAGNVTIRISFYPRKDGWFFRIKVHFDGKPRELMIPPDDSAEDLADELEKKLGADVTDIEVEWMPLEDGSAG [r5_181_TrROS]”, the “folding stability dG unfold” value is reported as 3.88 ± 0.12 kcal/mol.
In the case of “SAGGSPPFRIKIDEIEILPNGIIQVTFKIDNGWPMTILIQMDPDGKVTIEIQFPGNGQPFEFELPISAGGSA [r2_361_TrROS]”, the “folding stability dG unfold” value is reported as 3.27 ± 0.23 kcal/mol.
For “SAGGSAGGSAGGMEFKPGQEIEIVLKDENGRLIVIKAKVKKVDGKLVIEIEEAYELDDLSAGGSAGGSAGGS [r10_744_TrROS_Hall]”, the “folding stability dG unfold” value was 2.05 ± 0.26 kcal/mol.
With “SAGGSEVVLEAEGVDPATGKPYTVRVVYDKETGVPVVEVRDADGTLLAVIPVPPDKALEALKELGVSAGGSA [r2_115_TrMRF]” the “folding stability dG unfold” value was 2.99 ± 0.067 kcal/mol.
In the case of “SAGGSAGGSSPVRMVATIPLPDGTTITVEAEIVRLPDGTILIKTPSGEIIEVPPDVPVEFFPESAGGSAGGS [r20_227_JUSTAS]”, the “folding stability dG unfold” value is reported as 2.23 ± 0.054 kcal/mol.
